For series [1], the target named is T1, GST-Fob1 (prep also contains free Fob1) (Saccharomyces cerevisiae) (UniProt O13329).
T1 sequence: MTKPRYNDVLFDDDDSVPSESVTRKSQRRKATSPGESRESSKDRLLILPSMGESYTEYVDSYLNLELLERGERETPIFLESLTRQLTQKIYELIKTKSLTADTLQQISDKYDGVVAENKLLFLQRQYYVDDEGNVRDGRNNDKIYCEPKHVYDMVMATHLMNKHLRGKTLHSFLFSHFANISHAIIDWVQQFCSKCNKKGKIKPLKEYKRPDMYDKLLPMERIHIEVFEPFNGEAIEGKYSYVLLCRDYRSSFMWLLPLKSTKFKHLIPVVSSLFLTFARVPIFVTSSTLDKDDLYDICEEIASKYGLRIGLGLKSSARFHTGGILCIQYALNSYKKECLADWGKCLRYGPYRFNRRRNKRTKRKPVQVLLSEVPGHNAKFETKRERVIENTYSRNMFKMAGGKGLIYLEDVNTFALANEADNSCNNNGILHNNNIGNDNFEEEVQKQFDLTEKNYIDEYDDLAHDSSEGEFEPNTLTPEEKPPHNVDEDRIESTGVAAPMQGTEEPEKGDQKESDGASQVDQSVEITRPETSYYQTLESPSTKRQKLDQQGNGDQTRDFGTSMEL
Nature of the series: EMSA. As to conditions: 10 mM Tris pH 7.5, 1 mM EDTA, 0.1 M KCl, 0.1 mM DTT, 5% glycerol, 20 ul, 30 C 30 min; 6% PAGE in 0.5X TBE. (Mobility shift assays separate free from complexed probe on a gel.)

Series [2] deals with T1, GST-Fob1 (prep also contains free Fob1) (Saccharomyces cerevisiae). Nature of the series: competition. As to conditions: 10 mM Tris pH 7.5, 1 mM EDTA, 0.1 M KCl, 0.1 mM DTT, 5% glycerol, 20 ul, 30 C 30 min; 6% PAGE in 0.5X TBE.

In the case of “TGCTAGTGTTTGCAAGATGGTGCTTTTTTTTCTTTAGATTGCCACGTTTCTGCTCCT (double strand) [RDT1 promoter probe (57 bp)]”, the binding result in series [1] and in series [2] was “binds” in each case.

Values taken from paper PMC10132618.
